In patent US20210037856A1, “Ruminant Feed Composition Comprising A Muramidase” (Novozymes A/S, priority 2018, published 2021):

B1: N: mature muramidase polypeptide from Ovatospora brasiliensis, GH25; N in Example 4 (protein, listed as Ovatospora brasiliensis)
chain: FDISNWQPAGTVDFAAAYSSGARFVIIKATEGTSYIDPSFSSHYTKATNAGFIRGGYHFAHPGETTGAAEADYFIAHGGGWSNDGITLPGMLDLESENKGQCWGLSTSAMVSWIKSFSDRYKSRTGVYPLIYTNPSWWSACTGNSNAFVNTNPLVLARYASAPGTIPGGWPYQTIWQNSDSYAYGGDSDIFNGSLDRLKALAKGS
B2: W: mature muramidase polypeptide from Chaetomium sp., novel MUR polypeptide; W in Example 4 (protein)
chain: YPITGDPLNCRSGPGTSYAIKKSYTKGADIKISCQTEGTSVNGNSIWDKTQDGCYVADFYVKTGVDGYVTKKCSGGGGDTGGGSGGIPGPVKDDYPYKSSCGGVDPWNYYKCQCTSFVAWRINKRLGIKFHNQYKGTNWGNANTWDNAAKKTGVKVNSTPKPGAIAQSNAGNYGHVAWVTAVNGNKVTIEEYNWGKREGYGKRTVDKSAFNYIHVKA
modifications: Chaetomium sp
B3: U: mature muramidase polypeptide from Zopfiella Sp., novel MUR polypeptide; U in Example 4 (protein)
chain: YPIKGDTVNCRSGPGTSFAVKKTYAKGKDIKITCQTTGTSVNGNNIWDKTSDGCYVADYYVKTGKDGFVTDKCDASSVPKPPATKIPGPVTNDYPYKSSCGGVDPWNYYKCQCTSFVAWRVNKRLGKKFHNRYKGHAWGNANQWDEAAKQSGVKVNSTPKPGCIAQTNAGSYGHVAWVTAVGKDTVTIEEYNWNKKLGYGTRTVAKSKFNYIHLEP
modifications: Zopfiella sp
B4: Z: mature muramidase polypeptide from Penicillium wellingtonense, novel MUR polypeptide; Z in Example 4 (protein)
chain: YPITGDVVNCRSGPGTTYDVVKSYKLNADVSITCQAPGTDVKGDSVWDKTADGCYVADYYVKTGSSSYVTTKCGGDDDGGDNDGGSSGNLPGLTSTQSKHAKDIIAEAKSEDLGRQGCLAGIATAIVESNILIYANSGVPESLKYPHDAVGSDHDSVGIFQQRAMFYKDIAADMDAGKSAGQFFGKMKAVSGWKSMDVGTLCQKVQGSAYPSRYAEQVSKAEKICKAGGL
modifications: Penicillium wellingtonense
B5: T: mature muramidase polypeptide from Chaetomium sp., novel MUR polypeptide; T in Example 4 (protein)
chain: YHIKGSIVNCRAGPGTSHAVKKTYAKGQNVQISCQTTGNIIHGNNIWDLTQDGCYVADYYVKTGTDGFVTDKCSSSGNSGVSGTSTSSVGGAAGPMKDDYPYKSNCEGTDPWLYFKCQCTSFVAWRINERLGIKFHNQYKGVNWGDANTWDDAAKRTGVTVNKTPKPGCVAQTDKGTWGHVAWVAAVGDETVTIEEYNYGGKERYGTRTVPKGEFDYIHVKN
modifications: Chaetomium sp
B6: S: mature muramidase polypeptide from Aspergffius sp., novel MUR polypeptide; S in Example 4 (protein, listed as Aspergillus sp.)
chain: YPVKADVHCRSGPGTSYSIVKTYSTGTQISVSCQAAGTDVDGDQLWDKTSDGCYVSDYYVSTGSSNYVTSHCPTEYAIKTDVNCRSGPGTNYGIVKTYNQGVMVSLNCQASGTDVDGDSLWDKTSDGCYVSDYYVATGSSSYVTSACSGSSSSGGGGSSSSGNLPSLDSTQSAHARAIIGEAKSQNVGRQGCLAGIATALVESSMLMYANSNVAASLSYPHDAVGSDYDSVGLFQQRVSIYTNLAADMDAAQSAGQFFDEMKKVSGWETMNVGDLCQEVQRSAYPDRYAGEVSTAESICSAGGL
B7: V: mature muramidase polypeptide from Acremonium exiguum, novel MUR polypeptide; V in Example 4 (protein, listed as Acremonium exiguum)
chain: RSIPIVARAYPGLDDVQSRNAEAALGEIRAEGINPARQACLAVISTALQESELYIYANPAVPESMNYPHDREGGDQDSVGMFQQRPEWYPDIAADMSASGSTRQFLAAMLQVPGWQTMEVSALDQEVQKAEAGNLYGQRIPLATQVCDAAGF
B8: Y: mature muramidase polypeptide from Ovatospora brasiliensis, novel MUR polypeptide; Y in Example 4 (protein, listed as Ovatospora brasiliensis)
chain: YPVKADSLNCRSGPGTSYKVVKTYKKGADIKISCQTEGPSVNGDNLWIKTQDGCYVADYYVKTGTNGYVAKKCSSGGSTGGGSGGGKGNLPGLNAKQSSHARAIVAQAKKDGVGLHGCEAGIATALVESGIKVYANKKVPASLKYPHDAVGSDHDSIGIFQQRAVYYPNIAADMDPARSAHQFFAKMKGVSGWKTMAVGKLCQKVQVSAYPDRYAKRVSEATKICKAAGI

What follows are molecules tested on rumen fluid (assay: in vitro ruminal fermentation, 22 muramidases, 12 h (Example 4)). Conditions: VFA production after 12 h; muramidase 0.20 mg/40 ml.
Set-up: species or system cow; DMd: unit not given here
Protocol: The trial was performed by Alimetrics (Alimetrics Ltd, Koskelontie 19B, FIN-02920 Espoo, Finland) using 120 mL serum bottles as fermentation vessels. The fermentation preparation and procedure is presented in Kettunen et al., (Kettunen H., J. Vuorenmaa, D. Gaffney and J. Apajalahti (2016): Yeast hydrolysate product enhances ruminal fermentation in vitro. J. App. Anim. Nutr., Vol. 4; e1; page 1 of 7). In short, the method is as follows: All bottles were initially filled with 1 g of feed DM composed from corn silage, barley meal, soybean meal, at the amounts of 0.5, 0.4, and 0.1 g DM, respectively. Subsequently, the bottles were flushed with CO2 passed through a hot copper catalyst for O2 scavenging and sealed with thick butyl rubber stopper. Anaerobic, reduced and temperature adjusted (+38° C.) artificial saliva buffer solution (Modified from Agriculture Handbook No. 379, (USDA, Washington, D.C., 1975), volume of 37.65 ml), freshly strained rumen fluid (5% inoculum; volume of 2 ml), and test compounds (volume of 0.35 ml) was introduced into the fermentation vessels under the oxygen-free CO2 flow. Following rumen fluid was collected from a ruminal cannulated cow. Rumen fluid was pumped directly from the rumen into a preheated thermos and immediately closed, and transported to Alimetrics laboratory. The rumen fluid was used for inoculation within 2 hours of harvest. To ensure that both liquid and particle associated ruminal microbes were present in the inoculum both fractions were obtained. Liquid and solid fractions were strained through a metal mesh (grid size 3×3 mm) under anaerobic conditions prior to buffer dilution.
Following inoculation with rumen fluid, buffer and test solution, the vessels were sealed with the butyl rubber septum's. All fermentation vessels were inoculated in random order to prevent the possible block effects. Inoculation time for each fermentation vessel was registered and was taken into account op on each sampling to ensure that duration of the fermentation was the same for each sample. The fermentation was continued for 12 h in a gyratory shaker at +38° C. Fermentation gas produced was measured and relived by collection of the fermentation gas in syringes at time 3, 6, 9, and 12 h. Feed residues were measured after 12 h fermentation.
The trial design was a dosage response, complete randomized design with 27 treatments using 145 fermentation vessels according to table 5. […] Negative control was supplemented with the same buffer solution that was used for diluting the enzymes to reach the same liquid volume as the supplemented fermentation vessels. The ionophore Monensin (Monensin sodium salt, 90-95% TLC (Sigma Aldrich; Product code: M5273-1G)) was chosen as a positive control because it is a ruminants feed additive that affects volatile fatty acids (VFA) production.
Liquid Samples Obtained at 12 h were Analyzed for the Concentration of VFA (Acetate, Propionate, butyrate, and valerate) by GC-FID using a glass column packed with 80/120 carbopack B-DA/4% Carbowax stationary and helium as a carrier gas (Kettunen H., J. Vuorenmaa, T. Rinttilä, H. Grönberg, E. Valkonen and J. Apajalahti (2015): Natural resin acid-enriched composition as a modulator of intestinal microbiota and performance enhancer in broiler chicken. J. App. Anim. Nutr., Vol. 3; e2; page 1 of 9).
Digestibility of dry matter was quantified by determination of dry matter in the original feed matrix and in all fermentation vessels after 12 h of fermentation. Feed residues from the fermentation vessels were obtained by filtration tared sintered glass filters, washed with water and dried at 105° C. for 12 hours. Finally, the glass filters are weighed for the residual feed dry matter.
Dry matter digestibility (DMd) was calculated at the ratio between feed residues after end fermentation and the dry matter fed. […]
For B1, the Acetate was 49.3 mmol/L, the Butyrate was 7.2 mmol/L and the Propionate was 40.8 mmol/L.
B2 gave an Acetate of 48.9 mmol/L, a Butyrate of 6.7 mmol/L and a Propionate of 40.9 mmol/L.
B3 gave an Acetate of 49.1 mmol/L, a Butyrate of 7.1 mmol/L and a Propionate of 40.5 mmol/L.
B4 showed an Acetate of 48.7 mmol/L, a Butyrate of 6.9 mmol/L and a Propionate of 39.6 mmol/L.
With B5 the Acetate was 53.6 mmol/L, the Butyrate was 7.8 mmol/L and the Propionate was 45.1 mmol/L.
In the case of B6, the Acetate is reported as 49.4 mmol/L, the Butyrate is reported as 7.1 mmol/L and the Propionate is reported as 41.2 mmol/L.
B7 was tested, and the Acetate was 49.2 mmol/L, the Butyrate was 7.1 mmol/L and the Propionate was 40.6 mmol/L.
Molecule B8 has an Acetate of 50.8 mmol/L, a Butyrate of 6.1 mmol/L and a Propionate of 43.1 mmol/L.

Same assay, conditions: dry matter digestibility after 12 h of ruminal fermentation in vitro; muramidase 0.20 mg/40 ml
Molecule B1 has a DMd of 0.59.
B2 showed a DMd of 0.59.
Work on B3 yielded a DMd of 0.60.
For B4, the DMd was 0.56.
B5 gave a DMd of 0.57.
Molecule B6 has a DMd of 0.58.
With B7 the DMd was 0.59.
B8 was tested, and the DMd was 0.57.

Same assay, conditions: sum of VFA after 12 h; muramidase 0.20 mg/40 ml
For B1, the “Total VFA” value was 98 mmol/L.
B2 was tested, and the “Total VFA” value was 97 mmol/L.
With B3 the “Total VFA” value was 97 mmol/L.
B4 was tested, and the “Total VFA” value was 96 mmol/L.
With B5 the “Total VFA” value was 107 mmol/L.
For B6, the “Total VFA” value was 98 mmol/L.
With B7 the “Total VFA” value was 97 mmol/L.
With B8 the “Total VFA” value was 100 mmol/L.

Same assay, conditions: summed carbon in VFA after 12 h; muramidase 0.20 mg/40 ml
B1 was tested, and the “Carbon in VFA” value was 253 mmol/L.
For B2, the “Carbon in VFA” value was 250 mmol/L.
With B3 the “Carbon in VFA” value was 251 mmol/L.
In the case of B4, the “Carbon in VFA” value is reported as 247 mmol/L.
B5 was tested, and the “Carbon in VFA” value was 277 mmol/L.
For B6, the “Carbon in VFA” value was 254 mmol/L.
With B7 the “Carbon in VFA” value was 252 mmol/L.
B8 was tested, and the “Carbon in VFA” value was 258 mmol/L.
